A word on the Ki: it is the equilibrium dissociation constant of an inhibitor or competing ligand from its target. Higher therefore signals lower affinity.

Consider one molecule from PMC7114241.

Among the targets are Ac-NSTSQ-H; Ac-NSFSQ-H; Ac-ESTLQ-H.
What all share (assay): FRET

B1: SARS-CoV main protease (Mpro), P0C6X7 (protein)
chain: SGFRKMAFPSGKVEGCMVQVTCGTTTLNGLWLDDTVYCPRHVICTAEDMLNPNYEDLLIRKSNHSFLVQAGNVQLRVIGHSMQNCLLRLKVDTSNPKTPKYKFVRIQPGQTFSVLACYNGSPSGVYQCAMRPNHTIKGSFLNGSCGSVGFNIDYDCVSFCYMHHMELPTGVHAGTDLEGKFYGPFVDRQTAQAAGTDTTITLNVLAWLYAAVINGDRWFLNRFTTTLNDFNLVAMKYNYEPLTQDHVDILGPLSAQTGIAVLDMCAALKELLQNGMNGRTILGSTILEDEFTPFDVVRQCSGVTFQ
Regarding B1, the values for the Ki with Ac-NSTSQ-H, with Ac-NSFSQ-H and in the assay with Ac-ESTLQ-H were 41 µM, 72.7 µM and 8.27 µM, respectively.
